Measurements as given in article PMC4849863 (Nature structural & molecular biology, 2015).

T1: Cdc45 (S. cerevisiae), subunit of CMG (Saccharomyces cerevisiae, UniProt Q08032 1-650)
T1 sequence (looked up): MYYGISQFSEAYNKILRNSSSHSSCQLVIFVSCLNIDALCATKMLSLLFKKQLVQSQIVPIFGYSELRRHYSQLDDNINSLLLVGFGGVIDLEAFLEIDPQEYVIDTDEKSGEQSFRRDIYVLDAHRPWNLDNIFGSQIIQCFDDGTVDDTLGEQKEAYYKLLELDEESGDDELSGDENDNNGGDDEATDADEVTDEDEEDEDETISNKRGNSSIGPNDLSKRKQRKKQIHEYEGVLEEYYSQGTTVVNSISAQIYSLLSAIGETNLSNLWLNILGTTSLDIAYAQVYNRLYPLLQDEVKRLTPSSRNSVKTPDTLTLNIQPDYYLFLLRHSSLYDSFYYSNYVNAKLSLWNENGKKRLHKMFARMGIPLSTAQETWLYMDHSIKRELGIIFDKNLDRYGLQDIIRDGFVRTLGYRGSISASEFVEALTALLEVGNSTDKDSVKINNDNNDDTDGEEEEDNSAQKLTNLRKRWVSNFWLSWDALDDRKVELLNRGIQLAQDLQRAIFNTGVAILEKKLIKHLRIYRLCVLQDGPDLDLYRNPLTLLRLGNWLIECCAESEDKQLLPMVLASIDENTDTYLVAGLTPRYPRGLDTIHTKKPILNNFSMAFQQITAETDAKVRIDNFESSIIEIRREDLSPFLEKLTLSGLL

T2: Mcm5 (S. cerevisiae), subunit of CMG (Saccharomyces cerevisiae, UniProt P29496 1-775)
T2 sequence (looked up): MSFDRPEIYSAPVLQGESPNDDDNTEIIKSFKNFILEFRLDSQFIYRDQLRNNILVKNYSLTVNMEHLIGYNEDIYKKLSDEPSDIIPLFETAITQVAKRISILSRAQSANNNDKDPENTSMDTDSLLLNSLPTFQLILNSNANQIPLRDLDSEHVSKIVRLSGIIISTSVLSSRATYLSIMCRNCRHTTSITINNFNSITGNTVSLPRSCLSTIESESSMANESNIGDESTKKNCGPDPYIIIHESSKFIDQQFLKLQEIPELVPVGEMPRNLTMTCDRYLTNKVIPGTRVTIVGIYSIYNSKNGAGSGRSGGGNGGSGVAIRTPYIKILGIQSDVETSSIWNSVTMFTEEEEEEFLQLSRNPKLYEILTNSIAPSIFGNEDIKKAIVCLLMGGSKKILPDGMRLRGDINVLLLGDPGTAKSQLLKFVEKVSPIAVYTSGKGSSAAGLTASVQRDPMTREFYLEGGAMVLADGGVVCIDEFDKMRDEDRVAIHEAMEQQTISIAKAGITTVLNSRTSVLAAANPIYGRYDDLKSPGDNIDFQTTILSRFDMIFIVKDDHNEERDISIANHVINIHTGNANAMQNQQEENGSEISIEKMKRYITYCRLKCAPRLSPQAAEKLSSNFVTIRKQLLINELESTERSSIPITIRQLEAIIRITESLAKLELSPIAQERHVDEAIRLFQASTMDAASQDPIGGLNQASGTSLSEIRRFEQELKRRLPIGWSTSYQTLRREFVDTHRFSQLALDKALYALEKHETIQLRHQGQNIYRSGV

B1: Dpb4 (S. cerevisiae), subunit of Pol ε (natural protein, Saccharomyces cerevisiae, UniProt Q04603 1-196, looked up)
chain: MPPKGWRKDAQGNYPTTSYIKEQENITIQDLLFPKSTIVNLAREVPQQSGKKLLINKDASLALQRGATVFVNHLLLFAREIAKSQDKKSCSVDDVLSALDHIGHSALKGPVRDKLDEYQAAVEQRKKEKLDSGEVDADGDIDMGEDKENVPVEKVKEHDEIEEQGDALQDVEESSEKKQKTESQDVETRVQNLEQT
B2: Dpb3 (S. cerevisiae), subunit of Pol ε (natural protein, Saccharomyces cerevisiae, UniProt P27344 1-201, looked up)
chain: MSNLVKEKAPVFPISKVKKIAKCDPEYVITSNVAISATAFAAELFVQNLVEESLVLAQLNSKGKTSLRLSLNSIEECVEKRDNFRFLEDAIKQLKKNSALDKKRELNMQPGRSDQEVVIEEPELHEDDGVEEEEEEDEVSEEEEPVHNEELLDDSKDQQNDKSTRSVASLLSRFQYKSALDVGEHSDSSDIEVDHTKSTDP
B3: GINS heterotetramer (Psf1, Psf2, Psf3, Sld5) of S. cerevisiae CMG (complex, Saccharomyces cerevisiae)
chain 1: MYGDLGNKLVLEAKRTKQLYARSNQDVNLPMYHEDIIRNILKEVSNLRKNTEYLKEQQQLGMLDDKVAKCQYFVTLLCMERNKRCLLAYQRLRTDILDSMAWNNNGLDLMSSITFSQQDTNNLSHQEQEYLKEYCDLITDLKSGDLVDIDLSGSLVPPSDVFIDVRVLKDAGEIQTEYGVFNLIKDSQFFVRQSDVERLIQQGYLQKI
chain 2: MSLPAHLQQTFSPEEIQFIVENEPIKIFPRITTRQKIRGDDRGTGNHTRWQLITTDDKALNNMVAMRSTEVVLWIALLLKQQSKCSIVAPQWLTTKELDRKIQYEKTHPDRFSELPWNWLVLARILFNKAKDDFHDPIHELRGKIQDLREIRQIKVLKGLKYLNESHLQLDNLSLLEINELRPFITEIMDKLREIHTASLTAGTENDEEEFNI
chain 3: MGYYDIDDVLADGTEFPCKFQYDIPGLGYLENNPGRPITKNTKLSLPLWLARILAIVGGDEALVDEEPVPFVELLPPDMFSTKVMNAIKTDPVALDLHSINSHFFSLAIKWIMLFSEKELANVVSELLLQRAQELNHHASSLSIDLNADSTGKNSANTNIATSTFLLKLEEMEKEIYKKSHESYKDTKRWMFKK
chain 4: MDINIDDILAELDKETTAVDSTKITQGSSSTTHRDANTIVGSSLDLNDKTQIYVSPQQDFSDLMKSWKNERCSPELLPYPHQLMKRLLNRISMQSQLIENISMGFLDMQNASNANPPMPNESKLPLLCMETELERLKFVIRSYIRCRLSKIDKFSLYLRQLNEDENSLISLTDLLSKDEIKYHDTHSLIWLKLVNDSILKYMPEELQAINDTEGSVNMIDEPDWNKFVFIHVNGPPDGKWNEDPLLQENEFGKPCYTVTIPDLKEEVELTIGSIYVMRYEVIRDLLRDDKVALI
B4: Psf1 (S. cerevisiae), subunit of GINS in CMG (natural protein, Saccharomyces cerevisiae, UniProt Q12488 1-208, looked up)
chain: B3 chain 1
B5: 80/75mer unprimed fork (mixed)
DNA 1: CCCCCACCGATGTGGTAGGAAGTGAGAATTGGAGAGTGTGTTTTTTTTTTTTTTTTTTTTTTTTTTTTTTTTTTTTTTTT
DNA 2: TTTTTTTTTTTTTTTTTTTTTTTTTTTTTTTTTTTTTTTTCACACTCTCCAATTCTCACTTCCTACCACATCGGT
B6: Dpb2 (S. cerevisiae), subunit of Pol ε (natural protein, Saccharomyces cerevisiae, UniProt P24482 1-689, looked up)
chain: MFGSGNVLPVKIQPPLLRPLAYRVLSRKYGLSIKSDGLSALAEFVGTNIGANWRQGPATIKFLEQFAAVWKQQERGLFIDQSGVKEVIQEMKEREKVEWSHEHPIQHEENILGRTDDDENNSDDEMPIAADSSLQNVSLSSPMRQPTERDEYKQPFKPESSKALDWRDYFKVINASQQQRFSYNPHKMQFIFVPNKKQNGLGGIAGFLPDIEDKVQMFLTRYYLTNDRVMRNENFQNSDMFNPLSSMVSLQNELSNTNRQQQSSSMSITPIKNLLGRDAQNFLLLGLLNKNFKGNWSLEDPSGSVEIDISQTIPTQGHYYVPGCMVLVEGIYYSVGNKFHVTSMTLPPGERREITLETIGNLDLLGIHGISNNNFIARLDKDLKIRLHLLEKELTDHKFVILGANLFLDDLKIMTALSKILQKLNDDPPTLLIWQGSFTSVPVFASMSSRNISSSTQFKNNFDALATLLSRFDNLTENTTMIFIPGPNDLWGSMVSLGASGTLPQDPIPSAFTKKINKVCKNVVWSSNPTRIAYLSQEIVIFRDDLSGRFKRHRLEFPFNESEDVYTENDNMMSKDTDIVPIDELVKEPDQLPQKVQETRKLVKTILDQGHLSPFLDSLRPISWDLDHTLTLCPIPSTMVLCDTTSAQFDLTYNGCKVINPGSFIHNRRARYMEYVPSSKKTIQEEIYI

Assays:
[1] = target: T1, Cdc45 (S. cerevisiae), subunit of CMG; experiment: cross-linking
[2] = target: Mcm3 (S. cerevisiae), subunit of CMG (Saccharomyces cerevisiae, UniProt P24279 1-971); experiment: cross-linking
[3] = target: B6; experiment: cross-linking
[4] = target: CMG helicase (Cdc45-Mcm2-7-GINS, 11 subunits) (Saccharomyces cerevisiae, UniProt P29469;P24279;P30665;P29496;P53091;P38132;Q08032;Q12488;P40359;Q12146;Q03406 …); experiment: EMSA
[5] = target: T2, Mcm5 (S. cerevisiae), subunit of CMG; experiment: cross-linking

Chain of Mcm3 (S. cerevisiae), subunit of CMG (P24279 whole entry): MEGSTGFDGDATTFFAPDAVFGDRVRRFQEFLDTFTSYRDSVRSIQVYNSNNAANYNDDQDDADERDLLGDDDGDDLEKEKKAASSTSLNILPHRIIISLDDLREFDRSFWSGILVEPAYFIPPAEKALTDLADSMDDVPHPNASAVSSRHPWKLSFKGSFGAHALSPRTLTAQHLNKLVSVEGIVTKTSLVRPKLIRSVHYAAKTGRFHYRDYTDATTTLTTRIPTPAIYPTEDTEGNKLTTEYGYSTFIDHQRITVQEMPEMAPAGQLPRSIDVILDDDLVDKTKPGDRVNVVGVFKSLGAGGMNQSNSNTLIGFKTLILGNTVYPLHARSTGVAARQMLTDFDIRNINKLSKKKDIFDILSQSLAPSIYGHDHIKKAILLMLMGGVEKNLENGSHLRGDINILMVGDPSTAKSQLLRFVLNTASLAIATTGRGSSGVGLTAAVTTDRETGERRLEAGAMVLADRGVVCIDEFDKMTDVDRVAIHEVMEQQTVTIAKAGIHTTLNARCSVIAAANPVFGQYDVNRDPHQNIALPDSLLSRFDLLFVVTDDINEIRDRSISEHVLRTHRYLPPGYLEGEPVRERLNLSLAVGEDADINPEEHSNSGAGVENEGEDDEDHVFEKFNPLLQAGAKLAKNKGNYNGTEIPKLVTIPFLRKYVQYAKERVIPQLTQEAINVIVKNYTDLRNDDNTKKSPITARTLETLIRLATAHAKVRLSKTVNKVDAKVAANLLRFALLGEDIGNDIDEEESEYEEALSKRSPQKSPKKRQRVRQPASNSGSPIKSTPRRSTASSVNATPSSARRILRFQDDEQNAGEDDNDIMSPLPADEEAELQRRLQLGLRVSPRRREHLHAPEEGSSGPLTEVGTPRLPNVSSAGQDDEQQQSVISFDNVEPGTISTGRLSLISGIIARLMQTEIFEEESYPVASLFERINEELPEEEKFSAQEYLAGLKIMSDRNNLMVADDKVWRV

Binder: B1
binding result [1]: binds

Binder: B2
binding result [1]: binds

Binder: B3
binding result [2]: binds

Binder: B4
binding result [3]: binds
binding result [1]: binds

Binder: B5
binding result [4]: binds

Binder: B6
binding result [5]: binds
